Results published in patent US20210388087A1 (Chugai, published 2021).
Positions count from the first letter of the chain named. Each block holds one binder with its values, some of them ahead of it.

Target: T1, CD3 epsilon homodimer protein (UniProt P07766 23-126)
T1 construct: also called CD3 (CD3 epsilon)
Assay: SPR, antibody over immobilised CD3e homodimer;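 also: SPR at 25 °C with CD3 epsilon homodimer amine-coupled to a CM4 sensor chip and antibody flowed over as analyte in HBS-EP+ running buffer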
Protocol: An appropriate amount of CD3 epsilon homodimer protein was immobilized onto Sensor chip CM4 (GE Healthcare Japan Corp.) by the amine coupling method. Then, the antibody having an appropriate concentration was injected thereto as an analyte and allowed to interact with the CD3 epsilon homodimer protein on the sensor chip. Then, the sensor chip was regenerated by the injection of 10 mmol/L glycine-HCl (pH 1.5). The assay was conducted at 25 degrees C., and HBS-EP+(GE Healthcare Japan Corp.) was used as a running buffer. […] Each parameter was calculated using Biacore T200 Evaluation Software (GE Healthcare Japan Corp.).

T1 sequence (P07766 23-126): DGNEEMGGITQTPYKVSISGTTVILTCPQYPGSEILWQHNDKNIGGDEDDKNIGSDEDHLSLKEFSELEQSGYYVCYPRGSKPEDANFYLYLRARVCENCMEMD

B2: CE115HA000/GLS3000 R54D (antibody, IgG1, name in Kabat numbering, V domains shown)
VH: QVQLVESGGGVVQPGRSLRLSCAASGFTFSNAWMHWVRQAPGKGLEWVAQIKAKSNNYATYYAESVKGRFTISRDDSKNSLYLQMNSLKTEDTAVYYCRYVHYGAYYGVDAWGQGTTVTVSS
VL: DIVMTQSPLSLPVTPGEPASISCRSSQSLVHSNRNTYLHWYQQKPGQAPRLLIYKVSNDFSGVPDRFSGSGSGTDFTLKISRVEAEDVGVYYCGQGTQVPYTFGQGTKLEIK
notes: one-arm IgG1
KD ratio to GLS3000: 1.8

B9: CE115HA000/GLS3000 R77S (antibody, IgG1, name in Kabat numbering, V domains shown)
VH: B2 VH
VL: B2 VL with D59R, R82S
notes: one-arm IgG1
KD ratio to GLS3000: 0.94

B11: CE115HA000/GLS3000 S27aG (antibody, IgG1, name in Kabat numbering, V domains shown)
VH: B2 VH
VL: B2 VL with S28G, D59R
notes: one-arm IgG1
KD ratio to GLS3000: 0.8

B13: CE115HA000/GLS3000 S26D (antibody, IgG1, name in Kabat numbering, V domains shown)
VH: B2 VH
VL: B2 VL with S26D, D59R
notes: one-arm IgG1
KD ratio to GLS3000: 1.06

B14: CE115HA000/GLS3000 S27eD (antibody, IgG1, name in Kabat numbering, V domains shown)
VH: B2 VH
VL: B2 VL with S32D, D59R
notes: one-arm IgG1
KD ratio to GLS3000: 1.23

B16: CE115HA000/GLS3000 R54W (antibody, IgG1, name in Kabat numbering, V domains shown)
VH: B2 VH
VL: B2 VL with D59W
notes: one-arm IgG1
KD ratio to GLS3000: 0.65

B18: CE115HA000/GLS3000 R54G (antibody, IgG1, name in Kabat numbering, V domains shown)
VH: B2 VH
VL: B2 VL with D59G
notes: one-arm IgG1
KD ratio to GLS3000: 0.88

B19: CE115HA000/GLS3000 R54S (antibody, IgG1, name in Kabat numbering, V domains shown)
VH: B2 VH
VL: B2 VL with D59S
notes: one-arm IgG1
KD ratio to GLS3000: 0.78

B21: CE115HA000/GLS3000 R29A (antibody, IgG1, name in Kabat numbering, V domains shown)
VH: B2 VH
VL: B2 VL with R34A, D59R
notes: one-arm IgG1
KD ratio to GLS3000: 1.15

B25: CE115HA000/GLS3000 R29S (antibody, IgG1, name in Kabat numbering, V domains shown)
VH: B2 VH
VL: B2 VL with R34S, D59R
notes: one-arm IgG1
KD ratio to GLS3000: 1.05

B26: CE115HA000/GLS3000 S25E (antibody, IgG1, name in Kabat numbering, V domains shown)
VH: B2 VH
VL: B2 VL with S25E, D59R
notes: one-arm IgG1
KD ratio to GLS3000: 8.54

B32: CE115HA000/GLS3000 S25M (antibody, IgG1, name in Kabat numbering, V domains shown)
VH: B2 VH
VL: B2 VL with S25M, D59R
notes: one-arm IgG1
KD ratio to GLS3000: 1.6

B36: CE115HA000/GLS3000 R54E (antibody, IgG1, name in Kabat numbering, V domains shown)
VH: B2 VH
VL: B2 VL with D59E
notes: one-arm IgG1
KD ratio to GLS3000: 0.84

B39: CE115HA000/GLS3000 S27eG (antibody, IgG1, name in Kabat numbering, V domains shown)
VH: B2 VH
VL: B2 VL with S32G, D59R
notes: one-arm IgG1
KD ratio to GLS3000: 1.03

B40: CE115HA000/GLS3000 R54P (antibody, IgG1, name in Kabat numbering, V domains shown)
VH: B2 VH
VL: B2 VL with D59P
notes: one-arm IgG1
KD ratio to GLS3000: 1.05

B41: CE115HA000/GLS3000 S25D (antibody, IgG1, name in Kabat numbering, V domains shown)
VH: B2 VH
VL: B2 VL with S25D, D59R
notes: one-arm IgG1
KD ratio to GLS3000: 8.86

B42: CE115HA000/GLS3000 R29D (antibody, IgG1, name in Kabat numbering, V domains shown)
VH: B2 VH
VL: B2 VL with R34D, D59R
notes: one-arm IgG1
KD ratio to GLS3000: 1.58

B44: CE115HA000/GLS3000 R54Q (antibody, IgG1, name in Kabat numbering, V domains shown)
VH: B2 VH
VL: B2 VL with D59Q
notes: one-arm IgG1
KD ratio to GLS3000: 1.04

B47: CE115HA000/GLS3000 S27aE (antibody, IgG1, name in Kabat numbering, V domains shown)
VH: B2 VH
VL: B2 VL with S28E, D59R
notes: one-arm IgG1
KD ratio to GLS3000: 0.94

More lines, now with the values ahead:

KD ratio to GLS3000: 1.03
B1: CE115HA000/GLS3000 R24T (antibody, IgG1, name in Kabat numbering, V domains shown)
VH: B2 VH
VL: B2 VL with R24T, D59R
notes: one-arm IgG1

KD ratio to GLS3000: 0.89
B3: CE115HA000/GLS3000 R54T (antibody, IgG1, name in Kabat numbering, V domains shown)
VH: B2 VH
VL: B2 VL with D59T
notes: one-arm IgG1

KD ratio to GLS3000: 1.16
B4: CE115HA000/GLS3000 S27eF (antibody, IgG1, name in Kabat numbering, V domains shown)
VH: B2 VH
VL: B2 VL with S32F, D59R
notes: one-arm IgG1

KD ratio to GLS3000: 4.93
B5: CE115HA000/GLS3000 S25L (antibody, IgG1, name in Kabat numbering, V domains shown)
VH: B2 VH
VL: B2 VL with S25L, D59R
notes: one-arm IgG1

KD ratio to GLS3000: 0.94
B6: CE115HA000/GLS3000 R24Y (antibody, IgG1, name in Kabat numbering, V domains shown)
VH: B2 VH
VL: B2 VL with R24Y, D59R
notes: one-arm IgG1

KD ratio to GLS3000: 0.62
B7: CE115HA000/GLS3000 R29G (antibody, IgG1, name in Kabat numbering, V domains shown)
VH: B2 VH
VL: B2 VL with R34G, D59R
notes: one-arm IgG1

KD ratio to GLS3000: 0.94
B8: CE115HA000/GLS3000 S27aD (antibody, IgG1, name in Kabat numbering, V domains shown)
VH: B2 VH
VL: B2 VL with S28D, D59R
notes: one-arm IgG1

KD ratio to GLS3000: 0.75
B10: CE115HA000/GLS3000 S25T (antibody, IgG1, name in Kabat numbering, V domains shown)
VH: B2 VH
VL: B2 VL with S25T, D59R
notes: one-arm IgG1

KD ratio to GLS3000: 0.79
B12: CE115HA000/GLS3000 S25P (antibody, IgG1, name in Kabat numbering, V domains shown)
VH: B2 VH
VL: B2 VL with S25P, D59R
notes: one-arm IgG1

KD ratio to GLS3000: 0.87
B15: CE115HA000/GLS3000 S27aI (antibody, IgG1, name in Kabat numbering, V domains shown)
VH: B2 VH
VL: B2 VL with S28I, D59R
notes: one-arm IgG1

KD ratio to GLS3000: 14
B17: CE115HA000/GLS3000 R29P (antibody, IgG1, name in Kabat numbering, V domains shown)
VH: B2 VH
VL: B2 VL with R34P, D59R
notes: one-arm IgG1

KD ratio to GLS3000: 1.04
B20: CE115HA000/GLS3000 S27eE (antibody, IgG1, name in Kabat numbering, V domains shown)
VH: B2 VH
VL: B2 VL with S32E, D59R
notes: one-arm IgG1

KD ratio to GLS3000: 0.85
B22: CE115HA000/GLS3000 R54A (antibody, IgG1, name in Kabat numbering, V domains shown)
VH: B2 VH
VL: B2 VL with D59A
notes: one-arm IgG1

KD ratio to GLS3000: 0.9
B23: CE115HA000/GLS3000 R29L (antibody, IgG1, name in Kabat numbering, V domains shown)
VH: B2 VH
VL: B2 VL with R34L, D59R
notes: one-arm IgG1

KD ratio to GLS3000: 2.25
B24: CE115HA000/GLS3000 R29V (antibody, IgG1, name in Kabat numbering, V domains shown)
VH: B2 VH
VL: B2 VL with R34V, D59R
notes: one-arm IgG1

KD ratio to GLS3000: 1.02
B27: CE115HA000/GLS3000 R29T (antibody, IgG1, name in Kabat numbering, V domains shown)
VH: B2 VH
VL: B2 VL with R34T, D59R
notes: one-arm IgG1

KD ratio to GLS3000: 1.08
B28: CE115HA000/GLS3000 R29Y (antibody, IgG1, name in Kabat numbering, V domains shown)
VH: B2 VH
VL: B2 VL with R34Y, D59R
notes: one-arm IgG1

KD ratio to GLS3000: 1.6
B29: CE115HA000/GLS3000 R29I (antibody, IgG1, name in Kabat numbering, V domains shown)
VH: B2 VH
VL: B2 VL with R34I, D59R
notes: one-arm IgG1

KD ratio to GLS3000: 1.05
B30: CE115HA000/GLS3000 S27eI (antibody, IgG1, name in Kabat numbering, V domains shown)
VH: B2 VH
VL: B2 VL with S32I, D59R
notes: one-arm IgG1

KD ratio to GLS3000: 1.09
B31: CE115HA000/GLS3000 S27eH (antibody, IgG1, name in Kabat numbering, V domains shown)
VH: B2 VH
VL: B2 VL with S32H, D59R
notes: one-arm IgG1

KD ratio to GLS3000: 0.67
B33: CE115HA000/GLS3000 S25I (antibody, IgG1, name in Kabat numbering, V domains shown)
VH: B2 VH
VL: B2 VL with S25I, D59R
notes: one-arm IgG1

KD ratio to GLS3000: 0.98
B34: CE115HA000/GLS3000 S27aN (antibody, IgG1, name in Kabat numbering, V domains shown)
VH: B2 VH
VL: B2 VL with S28N, D59R
notes: one-arm IgG1

KD ratio to GLS3000: 0.93
B35: CE115HA000/GLS3000 S27aY (antibody, IgG1, name in Kabat numbering, V domains shown)
VH: B2 VH
VL: B2 VL with S28Y, D59R
notes: one-arm IgG1

KD ratio to GLS3000: 0.67
B37: CE115HA000/GLS3000 S26P (antibody, IgG1, name in Kabat numbering, V domains shown)
VH: B2 VH
VL: B2 VL with S26P, D59R
notes: one-arm IgG1

KD ratio to GLS3000: 0.9
B38: CE115HA000/GLS3000 S26E (antibody, IgG1, name in Kabat numbering, V domains shown)
VH: B2 VH
VL: B2 VL with S26E, D59R
notes: one-arm IgG1

KD ratio to GLS3000: 1.01
B43: CE115HA000/GLS3000 S27aP (antibody, IgG1, name in Kabat numbering, V domains shown)
VH: B2 VH
VL: B2 VL with S28P, D59R
notes: one-arm IgG1

KD ratio to GLS3000: 0.73
B45: CE115HA000/GLS3000 S25A (antibody, IgG1, name in Kabat numbering, V domains shown)
VH: B2 VH
VL: B2 VL with S25A, D59R
notes: one-arm IgG1

KD ratio to GLS3000: 0.74
B46: CE115HA000/GLS3000 S25V (antibody, IgG1, name in Kabat numbering, V domains shown)
VH: B2 VH
VL: B2 VL with S25V, D59R
notes: one-arm IgG1
